# Reference: IntAct's records for PubMed 31515488
# B1: Medium-chain acyl-CoA ligase ACSF2, mitochondrial (Homo sapiens), Q96CM8 (parent)
# chain: MAVYVGMLRLGRLCAGSSGVLGARAALSRSWQEARLQGVRFLSSREVDRMVSTPIGGLSYVQGCTKKHLNSKTVGQCLETTAQRVPEREALVVLHEDVRLTFAQLKEEVDKAASGLLSIGLCKGDRLGMWGPNSYAWVLMQLATAQAGIILVSVNPAYQAMELEYVLKKVGCKALVFPKQFKTQQYYNVLKQICPEVENAQPGALKSQRLPDLTTVISVDAPLPGTLLLDEVVAAGSTRQHLDQLQYNQQFLSCHDPINIQFTSGTTGSPKGATLSHYNIVNNSNILGERLKLHEKTPEQLRMILPNPLYHCLGSVAGTMMCLMYGATLILASPIFNGKKALEAISRERGTFLYGTPTMFVDILNQPDFSSYDISTMCGGVIAGSPAPPELIRAIINKINMKDLVVAYGTTENSPVTFAHFPEDTVEQKAESVGRIMPHTEARIMNMEAGTLAKLNTPGELCIRGYCVMLGYWGEPQKTEEAVDQDKWYWTGDVATMNEQGFCKIVGRSKDMIIRGGENIYPAELEDFFHTHPKVQEVQVVGVKDDRMGEEICACIRLKDGEETTVEEIKAFCKGKISHFKIPKYIVFVTNYPLTISGKIQKFKLREQMERHLNL
# B2: Placental protein 13-like (Homo sapiens), Q8TCE9 (parent)
# chain: MSSLPVPYTLPVSLPVGSCVIITGTPILTFVKDPQLEVNFYTGMDEDSDIAFQFRLHFGHPAIMNSCVFGIWRYEEKCYYLPFEDGKPFELCIYVRHKEYKVMVNGQRIYNFAHRFPPASVKMLQVFRDISLTRVLISD
# partner: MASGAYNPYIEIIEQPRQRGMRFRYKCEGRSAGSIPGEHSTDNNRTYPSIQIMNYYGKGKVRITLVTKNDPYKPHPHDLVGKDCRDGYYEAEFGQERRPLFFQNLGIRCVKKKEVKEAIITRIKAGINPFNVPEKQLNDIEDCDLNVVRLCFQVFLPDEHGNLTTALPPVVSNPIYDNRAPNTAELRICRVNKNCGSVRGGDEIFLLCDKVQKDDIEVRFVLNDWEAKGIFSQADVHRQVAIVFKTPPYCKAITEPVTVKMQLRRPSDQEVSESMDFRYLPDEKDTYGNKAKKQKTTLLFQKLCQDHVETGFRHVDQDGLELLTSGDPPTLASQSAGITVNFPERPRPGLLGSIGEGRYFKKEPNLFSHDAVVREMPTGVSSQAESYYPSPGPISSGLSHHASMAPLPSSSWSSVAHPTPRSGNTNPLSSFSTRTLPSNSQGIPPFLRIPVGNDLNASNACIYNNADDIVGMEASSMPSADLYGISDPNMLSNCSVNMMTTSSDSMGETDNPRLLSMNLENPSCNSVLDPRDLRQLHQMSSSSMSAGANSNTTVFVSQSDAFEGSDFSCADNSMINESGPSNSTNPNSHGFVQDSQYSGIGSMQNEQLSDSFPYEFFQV
# B3: Germ cell-less protein-like 1 (Homo sapiens), Q96IK5 (parent)
# chain: MGSLSSRVLRQPRPALAQQAQGARAGGSARRPDTGDDAAGHGFCYCAGSHKRKRSSGSFCYCHPDSETDEDEEEGDEQQRLLNTPRRKKLKSTSKYIYQTLFLNGENSDIKICALGEEWSLHKIYLCQSGYFSSMFSGSWKESSMNIIELEIPDQNIDVEALQVAFGSLYRDDVLIKPSRVVAILAAACLLQLDGLIQQCGETMKETVNVKTVCGYYTSAGTYGLDSVKKKCLEWLLNNLMTHQNVELFKELSINVMKQLIGSSNLFVMQVEMDIYTALKKWMFLQLVPSWNGSLKQLLTETDVWFSKQRKDFEGMAFLETEQGKPFVSVFRHLRLQYIISDLASARIIEQDAVVPSEWLSSVYKQQWFAMLRAEQDSEVGPQEINKEELEGNSMRCGRKLAKDGEYCWRWTGFNFGFDLLVTYTNRYIIFKRNTLNQPCSGSVSLQPRRSIAFRLRLASFDSSGKLICSRTTGYQILTLEKDQEQVVMNLDSRLLIFPLYICCNFLYISPEKKN
# B4: Coiled-coil domain-containing protein 92 (Homo sapiens), Q53HC0 (parent)
# chain: MTSPHFSSYDEGPLDVSMAATNLENQLHSAQKNLLFLQREHASTLKGLHSEIRRLQQHCTDLTYELTVKSSEQTGDGTSKSSELKKRCEELEAQLKVKENENAELLKELEQKNAMITVLENTIKEREKKYLEELKAKSHKLTLLSSELEQRASTIAYLTSQLHAAKKKLMSSSGTSDASPSGSPVLASYKPAPPKDKLPETPRRRMKKSLSAPLHPEFEEVYRFGAESRKLLLREPVDAMPDPTPFLLARESAEVHLIKERPLVIPPIASDRSGEQHSPAREKPHKAHVGVAHRIHHATPPQAQPEVKTLAVDQVNGGKVVRKHSGTDRTV
# partner: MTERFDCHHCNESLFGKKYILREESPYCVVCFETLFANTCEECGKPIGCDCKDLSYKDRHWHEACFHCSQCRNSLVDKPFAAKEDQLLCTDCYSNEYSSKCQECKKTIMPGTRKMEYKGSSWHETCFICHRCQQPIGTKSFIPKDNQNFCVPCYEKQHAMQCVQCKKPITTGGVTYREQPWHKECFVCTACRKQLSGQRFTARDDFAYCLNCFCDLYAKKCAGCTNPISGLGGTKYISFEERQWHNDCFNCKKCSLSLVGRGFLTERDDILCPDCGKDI
# B5: 5'-AMP-activated protein kinase subunit beta-2 (Homo sapiens), O43741 (parent)
# chain: MGNTTSDRVSGERHGAKAARSEGAGGHAPGKEHKIMVGSTDDPSVFSLPDSKLPGDKEFVSWQQDLEDSVKPTQQARPTVIRWSEGGKEVFISGSFNNWSTKIPLIKSHNDFVAILDLPEGEHQYKFFVDGQWVHDPSEPVVTSQLGTINNLIHVKKSDFEVFDALKLDSMESSETSCRDLSSSPPGPYGQEMYAFRSEERFKSPPILPPHLLQVILNKDTNISCDPALLPEPNHVMLNHLYALSIKDSVMVLSATHRYKKKYVTTLLYKPI
# partner: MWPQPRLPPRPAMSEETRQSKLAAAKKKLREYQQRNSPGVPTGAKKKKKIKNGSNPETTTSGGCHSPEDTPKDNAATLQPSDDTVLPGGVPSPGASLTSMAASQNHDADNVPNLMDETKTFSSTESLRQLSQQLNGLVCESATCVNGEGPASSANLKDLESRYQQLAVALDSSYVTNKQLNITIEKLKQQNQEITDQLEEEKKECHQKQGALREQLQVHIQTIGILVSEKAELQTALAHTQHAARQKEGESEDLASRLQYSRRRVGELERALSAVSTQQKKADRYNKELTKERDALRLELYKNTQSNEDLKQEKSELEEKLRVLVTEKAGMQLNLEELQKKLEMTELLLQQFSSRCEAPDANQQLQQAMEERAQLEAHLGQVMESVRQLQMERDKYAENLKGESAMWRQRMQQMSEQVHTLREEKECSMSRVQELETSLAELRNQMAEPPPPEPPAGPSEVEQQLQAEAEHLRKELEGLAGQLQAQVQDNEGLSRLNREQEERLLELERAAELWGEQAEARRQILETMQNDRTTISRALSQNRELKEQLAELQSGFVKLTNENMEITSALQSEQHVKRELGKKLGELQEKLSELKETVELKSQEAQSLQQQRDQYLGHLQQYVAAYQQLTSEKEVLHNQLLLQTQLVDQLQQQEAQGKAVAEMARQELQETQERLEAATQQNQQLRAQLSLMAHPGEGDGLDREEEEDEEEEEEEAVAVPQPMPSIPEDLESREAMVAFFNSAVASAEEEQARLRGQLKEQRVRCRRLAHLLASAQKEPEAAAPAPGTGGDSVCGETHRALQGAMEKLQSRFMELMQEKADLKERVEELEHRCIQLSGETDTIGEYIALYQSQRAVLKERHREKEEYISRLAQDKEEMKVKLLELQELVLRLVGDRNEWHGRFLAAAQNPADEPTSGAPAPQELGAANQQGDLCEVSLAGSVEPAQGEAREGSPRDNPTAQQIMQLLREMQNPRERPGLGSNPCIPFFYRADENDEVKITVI
# B6: Protein ZNRD2 (Homo sapiens), O60232 (parent)
# chain: MALNGAEVDDFSWEPPTEAETKVLQARRERQDRISRLMGDYLLRGYRMLGETCADCGTILLQDKQRKIYCVACQELDSDVDKDNPALNAQAALSQAREHQLASASELPLGSRPAPQPPVPRPEHCEGAAAGLKAAQGPPAPAVPPNTDVMACTQTALLQKLTWASAELGSSTSLETSIQLCGLIRACAEALRSLQQLQH
# partner: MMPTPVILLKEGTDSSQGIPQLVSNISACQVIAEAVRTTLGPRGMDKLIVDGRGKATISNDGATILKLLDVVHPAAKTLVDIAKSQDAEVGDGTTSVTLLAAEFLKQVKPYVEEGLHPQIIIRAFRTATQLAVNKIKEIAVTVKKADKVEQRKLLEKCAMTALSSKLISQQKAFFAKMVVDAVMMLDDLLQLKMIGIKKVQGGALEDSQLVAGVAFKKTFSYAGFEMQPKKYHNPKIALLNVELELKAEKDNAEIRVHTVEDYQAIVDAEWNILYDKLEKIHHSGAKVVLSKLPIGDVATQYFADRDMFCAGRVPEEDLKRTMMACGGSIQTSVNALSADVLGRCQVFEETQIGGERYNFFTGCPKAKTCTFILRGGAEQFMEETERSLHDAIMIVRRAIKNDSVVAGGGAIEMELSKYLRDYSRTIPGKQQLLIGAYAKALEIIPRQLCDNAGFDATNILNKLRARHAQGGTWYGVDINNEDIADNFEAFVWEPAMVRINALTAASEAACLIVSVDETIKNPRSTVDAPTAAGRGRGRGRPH
# Variants of: B1
# Conditions: with atrap_human AGTRAP
row,effect of a mutation on the interaction,Variant
1,disrupting interaction strength,G19W
2,disrupting interaction strength,A34V

# Variants of: B1
# Conditions: with ar6p1_human ARL6IP1, Q15041
# Sequence of ar6p1_human ARL6IP1, Q15041 (Q15041 whole entry): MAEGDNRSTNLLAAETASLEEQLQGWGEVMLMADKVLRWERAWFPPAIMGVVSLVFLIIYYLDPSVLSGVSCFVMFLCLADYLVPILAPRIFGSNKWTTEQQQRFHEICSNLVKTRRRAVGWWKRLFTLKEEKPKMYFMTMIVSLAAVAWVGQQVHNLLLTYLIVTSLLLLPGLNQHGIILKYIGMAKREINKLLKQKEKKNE
row,effect of a mutation on the interaction,Variant
1,disrupting interaction strength,G19W
2,disrupting interaction strength,A34V

# Variants of: B2
# Conditions: with rel_human REL
row,effect of a mutation on the interaction,Variant
1,with no effect,M123T

# Variants of: B3
# Conditions: with cul3_human CUL3, Q13618
row,effect of a mutation on the interaction,Variant
1,with no effect,K123R
2,with no effect,R449Q
3,with no effect,K281Q
4,with no effect,I340V
5,with no effect,Y61S
6,with no effect,E77K
7,with no effect,I147V
8,with no effect,R457H

# Variants of: B3
# Conditions: with FAM167A
row,effect of a mutation on the interaction,Variant
1,with no effect,K123R
2,with no effect,R449Q
3,disrupting interaction strength,K281Q
4,with no effect,I340V
5,with no effect,Y61S
6,with no effect,E77K
7,with no effect,I147V
8,disrupting interaction strength,R457H

# Variants of: B4
# Conditions: with fhl2_human FHL2, Q14192
row,effect of a mutation on the interaction,Variant
1,with no effect,S70C

# Variants of: B5
# Conditions: with goga2_human GOLGA2, Q08379
row,effect of a mutation on the interaction,Variant
1,with no effect,G55E

# Variants of: B6
# Conditions: with tcph_human CCT7, Q99832
row,effect of a mutation on the interaction,Variant
1,with no effect,T21M
